Laboratory results: the supplement of paper PMC10567573

B1: RHOBTB2 (parent)
chain: NQEITKAFHVRRTNRVKECLAKGT
B2: TNXB (parent)
chain: LLQRELMVPGTRHSAVLRDLRSGT

Variants of: B1
Experiment: protein stability index of a GFP-peptide fusion (GPS, HEK-293T) (PSI 1-6); higher = more stable
Conditions: c terminus: a fixed tail appended
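Further: lentivirally expressed fusions sorted by FACS into six bins by GFP to DsRed ratio, PSI derived from sequencing read proportions per bin multiplied by bin number.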

Protein stability index: each site, then its substitutions
N1: L 2.31 | T 1.57 | E 4.01 | V 3.07 | S 3.94 | H 2.86 | C 2.25 | A 4.01 | F 2.07 | W 2.45 | P 4.54 | M 2.66 | K 3.49 | I 1.59 | G 2.88 | Q 3.87 | Y 2.26
E3: S 2.26 | C 2.31 | Q 2.22 | M 2.87 | G 3.15 | D 2.63 | V 2.4 | F 2.04 | I 2.57 | R 3.02 | W 3.8 | K 3.06 | Y 2.23 | L 3.66 | N 3.38 | P 3.38 | H 2.47
I4: E 4.32 | M 4.25 | R 3.72 | G 4.42 | H 4.13 | L 3.51 | K 3.75 | T 5.01 | A 4.92 | N 3.38 | P 4.43 | D 4.37 | S 4.49 | W 3.21 | F 3.46
K6: Y 2.25 | Q 3.18 | S 2.77 | L 2.84 | V 2.1 | E 4.03 | G 3.49 | T 3.43 | N 3.25 | H 3.87 | F 2.97 | D 4 | R 2.87 | P 4.09 | I 1.51 | W 2.34 | M 2.29 | C 2.21
H9: G 4.27 | M 2.08 | F 2.55 | D 4.12 | I 3.08 | N 4.24 | E 4.58 | A 2.45 | C 2.65 | L 2.77
T5: I 4.04 | Q 4.06 | D 3.84 | Y 3.46 | A 3.75 | H 4.29 | G 2.21 | K 4.06 | P 3.88 | E 4.16 | F 2.67 | S 3.48 | C 2.04 | V 3.51 | N 3.22 | R 3.7 | M 3.42 | L 2.86 | W 3
F8: C 4.96 | H 4.73 | L 3.77 | A 4.6 | T 4.5 | W 2.94 | N 4.39 | P 4.53 | M 4.77 | E 4.62 | I 4.37 | R 4.67 | Q 4.48 | D 4.67 | K 4.15 | G 4.63 | Y 3.37 | S 4.87 | V 4.46
A7: K 3.51 | M 2.48 | C 2.94 | R 3.76 | Q 3.5 | N 3.2 | T 3.11 | Y 2.29 | V 1.02 | H 2.52 | P 4.3 | W 3.34 | E 4.16 | D 3.82 | L 2.85
Q2: C 3.16 | V 3.5 | K 3.78 | N 3.42 | R 2.83 | F 3.01 | L 2.4 | W 2.69 | Y 3.31 | A 3.21 | P 3.4 | I 2.6 | H 3.53 | M 3.01 | D 4.2 | E 4.05 | G 2.39 | T 3.74

Variants of: B2
Experiment: as above
Conditions: c terminus: a fixed tail appended

Protein stability index of substitutions, site by site:
V16: R 2.52 | S 2.27 | D 3.19 | Q 2.68 | Y 3.05 | T 2.7 | K 2.48 | F 1.71 | M 2.15 | P 2.82 | L 2.33 | H 2.46 | W 2.06 | N 3 | A 3.05 | I 2.11 | C 2.02 | E 2.72
R21: H 3.21 | M 1.99 | W 2.75 | A 2.73 | D 2.69 | V 1.88 | Q 2.01 | Y 2.12 | S 2.06 | F 1.95 | G 2.43 | E 2.58 | T 2.18 | K 3.03 | N 2.34 | C 2.06 | P 2.85 | I 2.13 | L 1.99
D19: T 2.46 | F 2.18 | K 2.07 | I 1.71 | P 2.69 | M 2.39 | E 2.78 | N 2.06 | V 1.71 | S 2.31 | H 2.26 | A 2.27 | Y 2.23 | Q 2.29 | W 1.73 | R 1.69 | L 1.75 | G 2.31 | C 1.49
L20: H 2.7 | G 3.37 | F 1.92 | R 2.86 | W 2.3 | T 2.66 | D 3.65 | P 2.53 | K 3.02 | Q 2.89 | N 3.53 | Y 2.27 | V 2.63 | I 2.52 | S 3.38 | M 2.25 | C 2.85 | E 3.37 | A 2.97
S22: H 2.2 | A 2.32 | N 2.09 | G 2.12 | C 2 | R 2.78 | K 2.77 | Y 2.18 | L 2.04 | I 2.5 | M 2.19 | D 2.96 | W 1.71 | Q 3.04 | F 1.58 | P 2.43 | E 2.41 | T 2.39 | V 1.82
G23: A 2.31 | V 2.13 | K 2.92 | H 2.31 | F 2.82 | S 2.94 | M 2.22 | W 2.09 | Q 3.73 | T 2.43 | E 3.05 | L 1.81 | I 2.35 | P 2.14 | R 2.72 | D 3.38 | N 2.58 | Y 2.14 | C 2.36
L17: C 2.54 | K 3.75 | W 2.38 | H 2.28 | V 2.85 | N 2.96 | Y 2.45 | Q 3.32 | E 3.47 | M 3.05 | P 2.97 | R 3.46 | S 3.16 | T 2.73 | A 2.55 | I 2.81 | D 2.62 | F 2.23 | G 2.84
A15: K 2.82 | W 3.49 | L 2.14 | G 2.34 | F 1.98 | I 2.26 | N 3.19 | Q 1.97 | M 2.43 | T 2.18 | V 1.95 | P 2.35 | R 3.4 | Y 1.62 | H 2.41 | S 2.27
T24: Q 2.49 | D 2.5 | M 2.29 | K 2.03 | H 2.13 | A 2.7 | F 2.13 | S 2.2 | R 2.88 | E 1.83 | L 2 | P 2.54 | C 1.77 | G 3.51 | Y 2.64 | N 2.37 | W 1.84 | V 2.29 | I 1.72
R18: Y 2.07 | V 2.51 | W 1.8 | A 2.68 | G 2.44 | I 2.21 | T 2.43 | L 1.94 | P 2.75 | H 2.86 | N 2.71 | C 2.42 | K 2.39 | Q 2.48 | F 2.02 | E 3.33 | M 2.12 | D 2.83 | S 2.61
